Measurements from patent US10927157B2, “Helix-grafted proteins as inhibitors of disease-relevant protein-protein interactions” (priority 2014, dated 2021).

Assays:
[1] = system: HIV-1 IIIB virus; assay: In cellulo HIV-1 infection assay (CEM-GFP cells, flow cytometry); assay type: cell-based
Protocol: The ELMO grafts were tested as potential inhibitors of HIV-1 in cellulo. The validated assay uses a Lymphoblastoid CD4^+ T-cell line with stably integrated EGFP (CEM-GFP) under the control of the HIV-1 long terminal repeat (LTR) promoter. 293T cells are simultaneously transfected with HIV-1 IIIB virus. The infected cells and non-infected cells are mixed together along with the desired inhibitor. If infection succeeds the number of infected GFP^+ cells increases, which can be measured by flow cytometry (FIG. 18). The inhibition of each ELMO construct was determined in a dose depended manner and compared to C34 and T20 (FIG. 19).

[2] = target: T1, 5-helix (Human immunodeficiency virus type 1 group M subtype B, UniProt P04578, C598G/DEL583-596/DEL601-623/N624G); conditions: untagged ligand, E. coli cell lysate, Ni-NTA
Protocol: Lysate Ni-NTA Pulldown Assay: GLUE-Cpep was cloned into MCS1 of pETDuet-1 using restriction enzymes NcoI and NotI. The 5 helix with a C-terminal His6× tag was cloned into MCS2 of pETDuet-1 using the restriction enzymes NdeI and KpnI. Completed constructs were transformed into BL21s (DE3). Cells containing the co-expressed pair were inoculated and induced as described previously. Cells were spun down and resuspended in lysis buffer (100 mM NaCl, 20 mM Tris pH 7.4, 10 mM (NH4)2SO4), lysed by sonication, and spun down to remove cell debris. Cleared lysate was incubated with 200 μL Ni-NTA agarose resin for 1 hour. Ni-NTA agarose was washed with 8 mL lysis buffer and with 10 mM imidazole. Proteins were eluted with 500 μL lysis buffer containing 400 mM imidazole.

[3] = target: T1, 5-helix; conditions: E. coli cell lysate, FLAG-tagged ligand, Ni-NTA plates
Protocol: ELISA: Separately, wt-GLUE, GLUE-Cpep, and the C-peptide were cloned into MCS1 of pETDuet-1 with FLAG tags using restriction enzymes NcoI and NotI. The 5-helix with a C-terminal His6× tag was cloned into MCS2 of pETDuet-1 using restriction enzymes NdeI and KpnI. Completed constructs were transformed into BL21s (DE3). Cells containing the co-expressed pair were inoculated and induced as described previously. Cells were spun down and resuspended in lysis buffer (20 mM Hepes pH 7.5, 100 mM NaCl), lysed by sonication, and spun down to remove cell debris. Cleared lysates were incubated on clear Ni-NTA coated plates for 1 hour at room temperature and washed 4× with 200 μL wash buffer (20 mM Hepes pH 7.5, 150 mM NaCl, 0.05% Tween-20, 0.01 mg/mL BSA). HRP-conjugated mouse anti-DDDDK antibody in LiCor Blocking Buffer was incubated for 1 hour at room temperature, followed by 4×200 μL washes. Colorimetry was developed using TMB-One substrate and absorbance was measured at 655 nm on a SynergyMx Microplate Reader.

[4] = Circular dichroism thermal denaturation at 222 nm; assay type: physicochemical; conditions: CD 222 nm, Tris buffer pH 7.4, 0 to 90 °C
Protocol: Circular Dichroism: Proteins were purified as described above. […] Wavelength data are the average of three scans from 250 nm to 200 nm in 1 nm steps at 25° C. Thermal denaturation experiments at 222 nm were run from 0 to 90° C. in two-degree steps at a two-degree/minute rate of increase with one-minute equilibration and data averaging at each temperature. Tm values were obtained from minima of the first derivative of θ versus 1/T plots.

[5] = target: T1, 5-helix; assay type: cell-based, HIV; set-up: N-terminal superpositive GFP tethered to the 5-helix was cloned into pETDuet-1; His6 (N); His6 (C); expressed in transfected cells; host or cells: E. coli BL21 (DE3), pETDuet-1; conditions: E. coli co-expressing N-spGFP-5-helix and C-spGFP fusion, flow cytometry
Protocol: Split-Superpositive GFP (split-spGFP) Reassembly Assay: Split-spGFP reassembly experiments were performed as previously described (Chapman, A. M.; 3 McNaughton, B. R. Molecular BioSystems 2012, 8, 2036). […] The completed construct was transformed into BL21s (DE3) and the cells were made electrocompetent via standard protocols. Separately, GLUE-Cpep and C-peptide tethered to the C-terminal fragment of superpositive GFP were independently cloned into pBAD using restriction enzymes NcoI and BsrGI. Constructs were electroporated into electrocompetent BL21s (DE3) containing the N-terminal superpositive GFP plasmid, pulsing at 1.8 kV in a 1 mm cuvette. Cells were allowed to recover at 37° C. for 1 hour, and then plated onto agar plates containing carbenicillin and kanamycin. Individual colonies were picked and passaged once, followed by induction at 37° C. with 1 mM IPTG and 0.2% arabinosewhen cultures reached an OD600 of 0.5. After 6 hours, cells were spun down and resuspended in 5 mL PBS. GFP fluorescence was measured by MoFlo Flow Cytometer.

[6] = target: T1, 5-helix; conditions: 50 nM, 25% human serum, 37 °C, 4 or 12 h
Protocol: Colorimetry was developed using TMB-One substrate and absorbance was measured at 655 nm on a SynergyMx Microplate Reader.

[7] = room temperature (~25 °C)
Protocol: Protein Purification: Genes were cloned into pETDuet-1 using restriction enzymes BamHI and PacI, downstream of a His6× tag and transformed into BL21s (DE3). Cells were grown in 2.5 L LB cultures containing 50 μg/mL carbenicillin at 37° C. to OD600=0.5 and induced with 1 mM IPTG at 25° C. overnight. Cells were then collected by centrifugation, resuspended in Tris buffer (20 mM Tris pH 7.4, 100 mM NaCl, 10 mM (NH4)2SO4) and stored at −20° C. Frozen pellets were thawed and sonicated with 1 second pulses for 2 minutes. The lysate was cleared by centrifugation (15,000 rpm 30 min.) and the supernatant was mixed with 1 mL of Ni-NTA agarose resin for 1 hour at 4° C. The resin was collected by centrifugation (4,750 rpm, 10 min.). The resin was sequentially washed with 50 mL of buffer containing 20 mM imidazole, 10 mL buffer containing 50 mM imidazole, and 5 mL buffer containing 100 mM imidazole. […] The proteins were dialyzed against Tris buffer and analyzed for purity by SDS-PAGE shown below. Purified protein concentrations were quantified using Beer's Law at an absorbance of 280 nm, following standard practice (Grimsley, G. R.; Pace, C. N. Current Protocols in Protein Science (2003), 3.1.1-3.1.9).
All proteins were produced recombinantly in a pET vector with a His6× tag. […] Their expression was quantified in mg/L and compared to wtGLUE (FIG. 12A). […]

Molecule | inhibition of HIV-1 infection at 250 nM ([1]; 250 nM) | co-purification with His6-tagged 5-helix [2] | ELISA signal / affinity for 5-helix [3] | inhibition of HIV-1 infection ([1]; dose dependent, compared to C34 and T20) | Tm [4] [°C] | interaction-dependent GFP reassembly fluorescence [5] | ELISA signal for 5-helix after pre-incubation with human serum [6] | solubility and folding in aqueous solution [7]
C26-ELMO: shortened C-peptide grafted onto N-terminal helix of ELMO (SEQ ID NO:7) (WMEWDREINNYTSLIHSLIEESQNQQKQQRLNRLVE) | some inhibition of infection | could also be purified alongside 5-Helix-His6× |  |  |  |  |  | 
wtELMO: wild-type form of ELMO (Engulfment and Cell Motility) PTB domain, PDB 2VSZ (protein) PILELKEKIQPEILELIKQQRLNRLVEGTCFRKLNARRRQDKFWYCRLSPNHKVLHYGDLEESPQGEVPHDSLQDKLPVADIKAVVTGKDCPHMKEKGALKQNKEVLELAFSILYDSNCQLNFIAPDKHEYCIWTDGLNALLGK |  |  | strong ELISA signal | no inhibitory effect |  |  |  | 
GLUE-Cpep: helix-grafted GLUE PH domain displaying gp41 C-peptide on its C-terminal helix (grafted helix SEQ ID NO:3) (protein) MEYWHYVETTSSGQPLLREGEKDIAIDQSVGLYHGKSKILQRQRGRIFLTSQRIIYIDDAKPTQNSLGLELDDLAYVNYSSGFLTRSPALILFFKDPSSSTEFVQLSFRKSDGVWFSWATEIALYTILIHSLIEESQNQQEKNEQELL |  | excellent selectivity | slightly better affinity than the native C-peptide |  | ~79 | highly fluorescent | remains functional | soluble and well-folded
